Source: the supplement of paper PMC9170038

Tests used:
MS2 coat protein [1] = test: apparent KD of MS2 coat protein, switch OFF state (with FMN for OFF switches, without FMN for ON switches); designed switch direction (-1 OFF switch, 1 ON switch): -1; higher = weaker reporter binding; conditions: FMN input: 0 or 200 uM; Eterna round: R93 (includes R88 designs)
How it was run: (§1)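 Titrations with SNAP-549-labelled MS2 coat protein ran in twofold steps from 0.7 or 1.5 nM to 3 µM, each step taking 0.8–1.5 h at the start and 10–20 min toward the end. The targets were designed RNA switches transcribed on-chip from Illumina sequencing clusters, held in 100 mM Tris-HCl pH 7.5, 80 mM KCl, 4 mM MgCl2, without or with constant ligand. Apparent KD was taken per design as the median of normalised cluster binding-curve fits.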

MS2 coat protein [2] = test: apparent KD of MS2 coat protein, switch ON state; designed switch direction (-1 OFF switch, 1 ON switch): -1; higher = weaker reporter binding; conditions: FMN input: 0 or 200 uM; Eterna round: R93 (includes R88 designs)
How it was run: as §1

MS2 coat protein [3] = test: apparent KD of MS2 coat protein; designed switch direction (-1 OFF switch, 1 ON switch): 1; higher = weaker reporter binding
How it was run: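 Designed RNA switches were transcribed on Illumina chips by stalled E. coli RNA polymerase and titrated with SNAP-549-labelled MS2 coat protein from 0.7 or 1.5 nM, doubling to 3 µM. Step length ran from 0.8–1.5 h at the lowest concentration to 10–20 min at the highest. The apparent KD is the median over clusters for each design, from curve-fitted normalised cluster fluorescence.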

[4] = Eterna round: R95, input ligand: FMN 200 uM
[5] = Eterna round: R95, input ligand: microRNA oligo, concentration not stated
[6] = Eterna round: R95, input ligand: none

With “AUACGCUGAGGAUAUACCGAAACAACAUCCUCGUGUAUAAUACAUGAGGAUCACCCAUGUAGAAGGCAGUAAAA [Usmaan]” the “apparent KD of MS2 coat protein” value (MS2 coat protein [1]) was 85.5 nM and the “apparent KD of MS2 coat protein” value (MS2 coat protein [2]) was 46.2 nM.
With “AAAUAGUUAGGAUAUACAUGAGGAUCACCCAUGUGCACGUAUGGAGAAUAUGGUGGUGGUAGAAGGGACUAAAA [EX2 Malc#20]” the “apparent KD of MS2 coat protein” value (MS2 coat protein [1]) was 94.7 nM and the “apparent KD of MS2 coat protein” value (MS2 coat protein [2]) was 55.5 nM.
With “GAAAAGUGAGGAUAUACUUUGGGAAAAGAAAAGAUGAUGUUACAUGAGGAUCACCCAUGUAGAAGGCACAAAAA [Mat - Exclusion 2 - Mod - D155]” the “apparent KD of MS2 coat protein” value (MS2 coat protein [1]) was 38.1 nM and the “apparent KD of MS2 coat protein” value (MS2 coat protein [2]) was 25.2 nM.
For “CUCUUGUAAGGAUAUUAAUGAAAUGAAGUGAAAGAAAAGAAUAAGAAGGUACAUGAGGAUCACCCAUGUUAGAA [EteRNA is fun!]”, the “apparent KD of MS2 coat protein” value (MS2 coat protein [1]) was 27 nM and the “apparent KD of MS2 coat protein” value (MS2 coat protein [2]) was 28.9 nM.
“AAGAAGUGAGGAUAUACGCGAACAAAAAAAAAAAAGAAAGCGUAGAAGGCACAUGAGGAUCACCCAUGUCAAAA [Alfred Victor Espinas]” was tested, and the “apparent KD of MS2 coat protein” value (MS2 coat protein [1]) was 28.3 nM and the “apparent KD of MS2 coat protein” value (MS2 coat protein [2]) was 30.1 nM.
“AAAAAGUCAGGAUAUGCUUAUAAUAAGAAAAUUAGAGAUAUGCAGAAGGGACAUGAGGAUCACCCAUGUAAAAA [Ex 4.1]” was tested, and the “apparent KD of MS2 coat protein” value (MS2 coat protein [1]) was 36.4 nM and the “apparent KD of MS2 coat protein” value (MS2 coat protein [2]) was 53.2 nM.
For “AACAGUACAGGAUAUACAUGAGGAUCACCCAUGUAGAGAGAAUAAAACAAAAAUAAAUGUAGAAGGGUACUGGA [Moding Maslow revisited (73) 23]”, the “apparent KD of MS2 coat protein” value (MS2 coat protein [1]) was 26.1 nM and the “apparent KD of MS2 coat protein” value (MS2 coat protein [2]) was 25.6 nM.
With “GGAAAACAUGAGGAUCACCCAUGUGAGGAUAUUGAAACAAACAAAACAAACAAACAAACAAGAAGGCACAGGAA [Exclusion one redone]” the “apparent KD of MS2 coat protein” value (MS2 coat protein [1]) was 20.1 nM and the “apparent KD of MS2 coat protein” value (MS2 coat protein [2]) was 20.7 nM.
In the case of “UGUUGGCGAGGAUAUACAUGAGGAUCACCCAUGUGAGAGAAAAAAGUGAGAAAGAAAAGUAGAAGGCGCUGACU [salish99-ex3-08]”, the “apparent KD of MS2 coat protein” value (MS2 coat protein [1]) is reported as 211 nM and the “apparent KD of MS2 coat protein” value (MS2 coat protein [2]) is reported as 42.7 nM.
For “AUAGUACAUGAGGAUCACCCAUGUCAGGAUAUUCGAAACGAAAAAAAAAAAAAGUGAAGGAGAAGGGACUAUAA [EX1 Malc#10]”, the “apparent KD of MS2 coat protein” value (MS2 coat protein [1]) was 21.1 nM and the “apparent KD of MS2 coat protein” value (MS2 coat protein [2]) was 17.5 nM.
For “GUGUACAGAGGAUAUACAUGGGCAUGGAAACAUGCAUCCUCACAUGAGGAUCACCCAUGUAGAAGGCUGUACAC [Ex2: 708]”, the “apparent KD of MS2 coat protein” value (MS2 coat protein [1]) was 20.9 nM and the “apparent KD of MS2 coat protein” value (MS2 coat protein [2]) was 21.6 nM.
In the case of “AAAAAAGCAGGAUAUACGAACAUGUCGAAAGACGUGAAGGGACAUGAGGAUCACCCAUGUAGAAGGGUUAAGAA [Mat - Exclusion 2 - JL mod - D75]”, the “apparent KD of MS2 coat protein” value (MS2 coat protein [1]) is reported as 55 nM and the “apparent KD of MS2 coat protein” value (MS2 coat protein [2]) is reported as 166 nM.
For “AAGAGGCUAGGAUAUACACAUCUGAUGACUCAACCUAAAACACAUGAGGAUCACCCAUGUAGAAGGAGCGAAAG [Qucequor]”, the “apparent KD of MS2 coat protein” value (MS2 coat protein [1]) was 17 nM and the “apparent KD of MS2 coat protein” value (MS2 coat protein [2]) was 20.2 nM.
In the case of “AAAAAGUGAGGAUAUACAUGAGGAUCACCCAUGUGUAUAAAAAAUUACACAAAAGAAAGUAGAAGGCACUAAAA [Ex 3 Summer]”, the “apparent KD of MS2 coat protein” value (MS2 coat protein [1]) is reported as 32 nM and the “apparent KD of MS2 coat protein” value (MS2 coat protein [2]) is reported as 20.3 nM.
For “AAAAAGUGAGGAUAUACAUGAGGAUCACCCAUGUAAAAGGUCAGGGUGGCGGAGGACGGUAGAAGGCGCAAAAA [Excls3-IX]”, the “apparent KD of MS2 coat protein” value (MS2 coat protein [1]) was 40.2 nM and the “apparent KD of MS2 coat protein” value (MS2 coat protein [2]) was 34.5 nM.
For “GCUACAUGAGGAUCACCCAUGUGUGCGUGGGAGUGAGUGGCUUAGGAUAUCUAUGACUUUAGUUGAGAGAAGGAGGAUUGCUGU [SS-NG3-LRO11] (Eterna round: R96, puzzle: Same State NG 3)”, the “apparent KD of MS2 coat protein” value (MS2 coat protein [3]; input ligand: FMN 200 uM) was 190 nM, the “apparent KD of MS2 coat protein” value (MS2 coat protein [3]; input ligand: microRNA oligo, concentration not stated) was 105 nM and the “apparent KD of MS2 coat protein” value (MS2 coat protein [3]; input ligand: none) was 173 nM.
For “UUAUAACAUGAGGAUCACCCAUGUCAACAAAGUCGAGGAUAUGGGCAUAGAUUAUAAGAACCAGAAGGCGAAUAUU [Mat - Same State 1 - Mod of UCT - D40] (puzzle: Same State 1)”, the “apparent KD of MS2 coat protein” value (MS2 coat protein [3]; [4]) was 51.8 nM, the “apparent KD of MS2 coat protein” value (MS2 coat protein [3]; [5]) was 117 nM and the “apparent KD of MS2 coat protein” value (MS2 coat protein [3]; [6]) was 118 nM.
“UAGAAACAUGAGGAUCACCCAUGUGUCAAAGACAUAGGAUAUCACAACUGGCGCCAGUCGUGAGAAGGGUGGUAAA [Usonesat] (puzzle: Same State 1)” was tested, and the “apparent KD of MS2 coat protein” value (MS2 coat protein [3]; [4]) was 229 nM, the “apparent KD of MS2 coat protein” value (MS2 coat protein [3]; [5]) was 53.6 nM and the “apparent KD of MS2 coat protein” value (MS2 coat protein [3]; [6]) was 84.7 nM.
